Data from the domain aggregation screens of Martell et al. (2025).

Assay: soluble fraction after stress (log2 fold change); higher = more stays soluble; pooled small domains, quantitative proteomics
Settings: stress: pH 4
Method in brief: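 With high-throughput quantitative proteomics, pooled custom libraries of small protein domains were measured after pH 4 stress. Each domain's soluble amount after the stress gives a fold change taken as aggregation propensity. Higher log2 values mean more of the domain stayed soluble.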

| Sequence | soluble fraction (log2) |
| --- | --- |
| HMTIYLSENIKRLRLEKELTQETLSEFLGVTSQSVSNWERGESYPDITMLPEIADFFKVSVDELLGVNRAE | -1.66 |
| HMTIYPFNPNYLKDYQAYRVGLSLKEIDALLDFRSSGQWINSAEDFQRITGVSDSVLEQLIPYFKFS | -1.73 |
| HMTKASYKITTPSGVNVREGAGKRYAVRKAYPKGKTVTVTQTKEVNGNLWGKTSDGWFAIKYQGAVYASA | 0.2 |
| HMTKDEFLTTLRTLIQDMPPEDRRDVMNYYTEYFEDAGPEREQEVLRQLGSPEQVAREVLGG | -0.459 |
| HMTKDVIEIVDGNKFVFHKTIATDSVSSVINKYHISEADFRTWNELTGDMKVGEEYIVQLSLH | -0.576 |
| HMTKKFQIQTLDKLNVRKVADWNASAVTTVKKGQILDVVAEVSPKNGSTKMYKLESGLYITASEKYVKKQG | ≥ 0.43 |
| HMTKLPLLVELSRIIPTDTWVKKIKFSLGSVEFVGISKSASRLLPIVENSSYFHDTKFIGTIVT | -0.274 |
| HMTKNIIVTTSVKTSDELVEVAKNHALNLELDFNYRNKKTIKELLSSFDGLVVIYKNKISYFEDNSELF | 0.22 |
| HMTKQDYLTALQQELNKNAVADAEDIVSEYEQHFQFKLADGFTEEEIAAKLGAPAQIALQFAG | -1.64 |
| HMTKQRSIILDLLKANQDRHLTAEEMLELLNQNHTPVSKATLYRYLDMLVSQNAVRKFIIDDQPSAGYQYL | -0.0717 |
| HMTKSTSMDLGGFMIVEGSETVRLGGQILQKDVDYTIDYFSGKINFISEEALNPGAEISVSYEENQ | -1.44 |
| HMTKTEFLEALRRALNGNMAAASVEDNLKFYENYFYSEEAKGRSEAAVLSELGDPRILARTLIDAAER | -0.816 |
| HMTKTEFLNLLEQRLFVLNDNERADLLSEYKQHIEMKIQSGLSEEEAIADFGDPEELIKELLEAY | -1.13 |
| HMTKTFDSPEDADNDVLAKTLFQIFGVQSVYLKENFVTITKSNSVGWHTLMEKTGHTLEEHLKF | 0.0576 |
| HMTKTKFLSKDMILSAMSRTKSNRAAARYLSVSFVHYKKYAREYKDETSGVSLWEKHKNQSGTGIPK | 0.0318 |
| HMTKTSQEDEDIMRHLDELHTRWPFLGQRKLIEELKDQGIQIGRKRLRRLMKVMGIEAIAPK | 0.173 |
| HMTKVMVPNVVGMSRGEAEEALRGVKLQVDLKREVSDDPEVKPEEVLRQTPDAQTSVPQGSVVTLYVADKP | -0.407 |
| HMTKYEKKIFEIVNASRDHLTAEQVLAALREEYPAVSQATVYNNLKKLTSDGLLRKLTLADSPDRYD | 0.211 |
| HMTLAAATESREYLADLARRLDAADHGDKTRIKAEAAGLLGWSMATLHARLARDVGWTSGRK | -0.166 |
| HMTLDEFTDLMNLFKTGHIEQKPVILYGYNYWTSLKSWFEFNNMKFPEMYIDGIINTVDEFKILYNKIF | -0.77 |
| HMTLGPKQMGEAIIKNLKEKTGKSLEEWSQRILIHELTDKKEIIDFLKNDNGLGHFQALKIFEHLNGK | -0.652 |
| HMTLGQHIQALRKEAGYSQEALGEALGVTRQSISKWESDQAIPEVDKLVTLSRLFQVPVGVLLQVEQP | -0.166 |
| HMTLGSVRTVRQVLDDGRLLVADSGGNVTLVRRAGTLAKENVNTGDRVSVDSSVRFALTLIPV | -0.00374 |
| HMTLPEKSKRLFSQDDFWDQIFYRIGEGQSLREVSKYYKIPYTTIHDRIHSDEGIKLKYLEALTS | -0.592 |
| HMTLPQEPTVLPRPLRVGDTVHIRTLDKDAEVLALPDARGMVAVRAGIINTKVKLTDLTLVEEK | ≥ 0.43 |
| HMTLRDRDQALEELWGQLADVPMDSETERLLEPFMGWGVGVSRDEIWHWFDRRHSKGIGHLLYS | -1.67 |

| Sequence | soluble fraction (log2) |
| --- | --- |
| HMTLSENEKIIVDTIMKYQPLHIDVLNQQVKVDFYTLLGLLTKLEMEGIVLKNPGNIYKINTL | -0.865 |
| HMTLTPEQQAARRSEIVDIALRLIAENGFQKTSMREIADLAKMGKSSLYDFFKTKDEIAVYAMEKK | -0.856 |
| HMTMEFGEFLAKLRKERGYYQKEVAAYLNVTVATISNYEKNVHAPDLDTLVKLADFYDVSTDYLLQRT | -1.46 |
| HMTMGAAEAQALKDEALELYRTGGTQEDVVRAIEMYEQAAEAGNAQAASDLAYLKANGVYETAMNN | -0.75 |
| HMTMQQGTISRLNHSRGFGFLTTPDGEDLFFHRTNVHETPFARLQVGDRVTYDVQVTPRGTRADKVQLNM | -0.222 |
| HMTMRFVVADGQNFGSIAQSKALEAVKKGNTEFNYKDVDYTVDIQSDDFYVVYQGRDIMGYASR | -1.89 |
| HMTMTIEITVNGKTKTLVAELSLADLLRDLGMTKGRIAVELNGHIVPRSQFSSKTISNLDSIEIVQ | 0.138 |
| HMTNADRYIGQEATVTEKISNELSTGAVRIGGLVWTARTVDNSEAEEGERVTVEAIEGAKLLVKRR | -0.0323 |
| HMTNEPRLTNMGFNKMLIENYKMILEYQDFFIRISTQIGIININGFDLKLGEMTADEVLVTGKIESIDL | ≥ 0.43 |
| HMTNIDRLIGQTAIVKETINNKKEQGVVRINGMDWTARTEEIDEVILKGKPVEILDIQGIKLIVRKK | 0.161 |
| HMTNIELYQRLLNLGFTPAQAKILLVQYDETRLTDNLNYVDFKKQQGNIENLPAYTTTIIKKDVRL | 0.0954 |
| HMTNIQFINLKMTDNHPWIHQYIKDIILPPQTRIVMIKRNDIKTIPKGERRIEKDDELILSAFESQT | -1.27 |
| HMTNKKIILEIFQNSDKPLIVEEISKKMFEKTGKKMILSTIYRNLKNMEDVGILKKIYNEDGSYMYIF | -1.07 |
| HMTNKQEYAYQWLKSSIIENKIKPSTLLVERHLSEMLHISRTPVRTALMRLADEGFVVISPGRGMVVA | -0.0492 |
| HMTNQEFNAAFKPFLDYFPTTEMTKEKINIYYLALSDLSKEQLGSAFISMVKNRVYKNFPQVAEIRQYATN | -0.456 |
| HMTNTDYPGKVVPVDPDGKTLKPDGDASYNDKPGTKVKTPTVPGYTAEVPNVEVPVGGGDIKVTYHKKPV | 0.0461 |
| HMTNVYSLIGKRGIVVEDIDWQKGTGQVKIDGELWSVKTNEQINISKGTEVEVENIEGVKVFVKPI | -0.458 |
| HMTNYGTVRPGARGQAVTALQQALIRHGYKLTADGIYGRATRQAVRAFQQKHKLKVDGIVGSKTWALLLAD | -0.0192 |
| HMTPDGNATVWSANGYGVRLRTGPGKGYAIIGVYSVGTTVKVLERGPAGGWDHIQVGSRVGYMMNEFLHYY | 0.422 |
| HMTPDLSEFKERLRQILPGEPIEVRTANDGIVLSGTVTSIAALDRALDLAERYAPDKVSNLLSVG | 0.365 |
| HMTPELTAEEREVLSLLGDEPRTLAELIAASGRDYAALSVLLMGLELSQAVRQLPGNRYERF | -1.36 |
| HMTPGPFLVYITGAVERPNVLVTLDYGSRVIDALNAAGGSRIDANLDLVNLAQRLVDGDQIHVPTLR | -1.1 |
| HMTPGPYETLKPAPLGSYIEPKIGFATAIEIARKEAVQLGIKTEAGGIWYGGDFPFYNVSFFDPDD | -0.985 |
| HMTPKVTVPDVTGQTFSSAKQILESLGFTVKQQGSTDETDQVIDQNPTSGEADKGATITLTTKSS | -0.139 |
| HMTPPAQQPHEGLPTDETATDAKTLVQKSRWWLEEEQRQREAGNTAYAERIRLALIQLLYRAERA | 0.0525 |
| HMTPQNAAAVLRYLSSGAIKGVGPSTAQRIVEKFGAESLDIIQNKPEELATIRGISLSKALAVSEEYNKQY | 0.0689 |

| Sequence | soluble fraction (log2) |
| --- | --- |
| HMTPTFSNQDLIKAGLAGSPVAKRRRERLGELLGIGYGNAKQLLKRLDLFAIDRPTFERAVAQLDQEGK | 0.414 |
| HMTPVSQIATKDIEEKIDSLSDEYKDPFILHFKGFKYKEIADQLDIPIGTVKSRIFIARKKLIDLLPDY | -0.391 |
| HMTQEHDESVNLGKRLLDQALSRFGTSYRQLKKSEIKRILQSSGASTFKYILHQIGLGNRVPLAIANLIV | -0.0152 |
| HMTQEMPAEVKKKADAFNNAMDEENYTEAKAILAELEQNTAPSYPLLLQMQTRYAFETASWE | -0.974 |
| HMTQFSASSERAGAGGAYRTTLRAMEQNGDLLQISILLPDAVTAKHAATVWPERAQAIYTAILSELLK | -0.167 |
| HMTQGIDQISFSQFLDKVQSGEVTDVRISGSDITGTLKTGGKFETVAGNYEKIWDLLRENKVVFVVDSP | -0.309 |
| HMTQNSAITNRVLYMQRTLRQYGYAVPESGNFDRTTRAHAAEFLYNATGLPVRENQSVQEFYRAFQRVQG | 0.203 |
| HMTQRRLQSELDSIPGVGAGTRTKLLRTLGSVDAVLRASEAELLAAGANRRQVASIQAHAAAVER | 0.0567 |
| HMTQSQSLQSQFEQLEKAYQDNLHLLSPKQKLIIQEAGKIIQQLPQQAQIQAKVNLYQSLSAEISKESQQ | -0.107 |
| HMTQTDINQIETLVHEGNKLAAVKLLMDTAHIGLKEAKDIIDNFFLGKQTDLQAAVAQVQTR | -0.722 |
| HMTRHIQVNDSIASTPIEDVYFSTRTYNALLNNGISVIGDLSKYTHDDLYASFQGLGRAGVLEIEAYLRQD | -1.32 |
| HMTRHSSVDFAGYILRNKENEPIFGFGKHKGKTVVEVLQREQGYFGWLMEADFPLYTKKVLTAIRLNTLNS | 0.316 |
| HMTRLDLQNAFRVLPPEIQPAAVLFFLQERKQREIAKILGIGLPLVKYRIRKARELLAQFLRKEA | -0.073 |
| HMTRNEFLTALRGRLSALPKEEQDAALKYYEEYFDEAESEEDAARQLGSPDSIAEKILADYA | -0.00949 |
| HMTRQNTAVQQSDMAHHKASELTEGMSIVHSHFGRGTIISIETADDPRVTVDFSSEGRKTMLLRFAKFAIE | -1.08 |
| HMTRQRQLIYNIIQRADDHPTAEMIYARAKAEMPSIAFGTVYRNLKLMVDAGEILHIPVAGEPDRYDK | 0.142 |
| HMTRVANIPYSEFLKLVETDKINDVSMVGKTISGHLDDGTKFSTYTPPNDPNLIDKLSKHNVIIKAGPE | 0.0499 |
| HMTRVDKLQTWLSLPREQRDWDEGALMLLQLTGNKIMYRNLSVNPEGKANFIEGKLQQYLEFRLA | -1.16 |
| HMTSAHEKAFDLFDGGKLSEKALLIAVGAERSGFELAGDLRLRTLTAFEDGRLSEDAMIKLL | -1.5 |
| HMTSAIAEGTVIRLTQSTNIRESMSEDAPKVATAFSGEKVTVIMSYAEGWTKVTYGDKTGYIKTELL | -0.443 |
| HMTSAPHHIAAVLRDAIYRGVLEEGGPLHQARIAQSLGVSPIPLREALRLLETEGLVEFRGYRGAFVT | -0.8 |
| HMTSDADSLRDKTGYVAEQVTSKGGKVNLYDGGFDSLYSARSTGETISTGTEIRVVDPGGGNMLVVEPV | -0.356 |
| HMTSDYEPSEKDEKAVIGIAFLRNTDVYDVDIDKAEAIKALKANNDIYQKFVKFFPFVKLPSLYDDFQ | -0.109 |
| HMTSGPAWPALSAQQRSVLAPLQRDWHTIDAARKAKWLEVAARFPSMPAEERQRVQERMAEWA | -0.0144 |
